Results taken from patent US20190142860A1, “NUCLEIC ACID BASED TIA-1 INHIBITORS” (Aquinnah Pharmaceuticals, Inc., priority 2015, published 2019).

How the values were obtained:
[1] = target: Nucleolysin TIA-1 (endogenous mouse TIA1) (mouse) (UniProt P52912); assay: TIA1 IP-MS, WT1 cortex
[2] = target: Nucleolysin TIA-1 (endogenous mouse TIA1) (mouse) (UniProt P52912); assay: TIA1 IP-MS, WT2 cortex
[3] = target: Nucleolysin TIA-1 (endogenous mouse TIA1) (mouse) (UniProt P52912); assay: TIA1 IP-MS, WT3 cortex
[4] = target: Nucleolysin TIA-1 (endogenous mouse TIA1) (mouse) (UniProt P52912); assay: TIA1 IP-MS, tau KO 1 cortex
[5] = target: Nucleolysin TIA-1 (endogenous mouse TIA1) (mouse) (UniProt P52912); assay: TIA1 IP-MS, tau KO 2 cortex
[6] = target: Nucleolysin TIA-1 (endogenous mouse TIA1) (mouse) (UniProt P52912); assay: TIA1 IP-MS, tau KO 3 cortex

Sequence of UniProt P52912 (P52912 whole entry): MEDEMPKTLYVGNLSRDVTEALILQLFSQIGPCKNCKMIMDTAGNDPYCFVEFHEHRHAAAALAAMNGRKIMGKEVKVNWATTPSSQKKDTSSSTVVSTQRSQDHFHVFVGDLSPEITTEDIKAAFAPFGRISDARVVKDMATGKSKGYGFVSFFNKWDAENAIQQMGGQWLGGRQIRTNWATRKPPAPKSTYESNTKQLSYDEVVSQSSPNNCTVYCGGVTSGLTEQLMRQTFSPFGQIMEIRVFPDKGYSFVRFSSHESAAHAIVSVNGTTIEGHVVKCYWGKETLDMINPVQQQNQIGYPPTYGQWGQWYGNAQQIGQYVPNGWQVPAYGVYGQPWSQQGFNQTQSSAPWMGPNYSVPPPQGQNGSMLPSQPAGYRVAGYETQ

Substance: LanC-like protein 1 (from UniProt O89112 2-399)
- total ion current (normalized to TIA1 = 1000) [1]: 0
- total ion current (normalized to TIA1 = 1000) [2]: 0
- total ion current (normalized to TIA1 = 1000) [3]: 218
- total ion current (normalized to TIA1 = 1000) [4]: 0
- total ion current (normalized to TIA1 = 1000) [5]: 97.8
- total ion current (normalized to TIA1 = 1000) [6]: 0

Substance: Leucine-rich repeat-containing protein 59 (from UniProt Q922Q8 1-307)
- total ion current (normalized to TIA1 = 1000) [1]: 0
- total ion current (normalized to TIA1 = 1000) [2]: 408
- total ion current (normalized to TIA1 = 1000) [3]: 0
- total ion current (normalized to TIA1 = 1000) [4]: 10.6
- total ion current (normalized to TIA1 = 1000) [5]: 0
- total ion current (normalized to TIA1 = 1000) [6]: 0

Substance: Malate dehydrogenase, cytoplasmic (from UniProt P14152 2-334)
- total ion current (normalized to TIA1 = 1000) [1]: 0
- total ion current (normalized to TIA1 = 1000) [2]: 189
- total ion current (normalized to TIA1 = 1000) [3]: 31.7
- total ion current (normalized to TIA1 = 1000) [4]: 0
- total ion current (normalized to TIA1 = 1000) [5]: 81.6
- total ion current (normalized to TIA1 = 1000) [6]: 0

Substance: Malate dehydrogenase, mitochondrial (from UniProt P08249 25-338)
- total ion current (normalized to TIA1 = 1000) [1]: 0
- total ion current (normalized to TIA1 = 1000) [2]: 819
- total ion current (normalized to TIA1 = 1000) [3]: 131
- total ion current (normalized to TIA1 = 1000) [4]: 0
- total ion current (normalized to TIA1 = 1000) [5]: 477
- total ion current (normalized to TIA1 = 1000) [6]: 0

Substance: Microtubule-associated protein 6 (from UniProt Q7TSJ2 1-906)
- total ion current (normalized to TIA1 = 1000) [1]: 0
- total ion current (normalized to TIA1 = 1000) [2]: 116
- total ion current (normalized to TIA1 = 1000) [3]: 0
- total ion current (normalized to TIA1 = 1000) [4]: 0
- total ion current (normalized to TIA1 = 1000) [5]: 36.1
- total ion current (normalized to TIA1 = 1000) [6]: 0

Substance: Mitochondrial glutamate carrier 1 (from UniProt Q9D6M3 1-323)
- total ion current (normalized to TIA1 = 1000) [1]: 0
- total ion current (normalized to TIA1 = 1000) [2]: 136
- total ion current (normalized to TIA1 = 1000) [3]: 85
- total ion current (normalized to TIA1 = 1000) [4]: 0
- total ion current (normalized to TIA1 = 1000) [5]: 12.2
- total ion current (normalized to TIA1 = 1000) [6]: 0

Substance: Mitogen-activated protein kinase 1 (from UniProt P63085 2-358)
- total ion current (normalized to TIA1 = 1000) [1]: 0
- total ion current (normalized to TIA1 = 1000) [2]: 112
- total ion current (normalized to TIA1 = 1000) [3]: 0
- total ion current (normalized to TIA1 = 1000) [4]: 0
- total ion current (normalized to TIA1 = 1000) [5]: 72.4
- total ion current (normalized to TIA1 = 1000) [6]: 141

Substance: Myelin-oligodendrocyte glycoprotein (from UniProt Q61885 29-246)
- total ion current (normalized to TIA1 = 1000) [1]: 0
- total ion current (normalized to TIA1 = 1000) [2]: 133
- total ion current (normalized to TIA1 = 1000) [3]: 607
- total ion current (normalized to TIA1 = 1000) [4]: 0
- total ion current (normalized to TIA1 = 1000) [5]: 76
- total ion current (normalized to TIA1 = 1000) [6]: 0

Substance: NADH dehydrogenase [ubiquinone] flavoprotein 1, mitochondrial (from UniProt Q91YT0 21-464)
- total ion current (normalized to TIA1 = 1000) [1]: 0
- total ion current (normalized to TIA1 = 1000) [2]: 179
- total ion current (normalized to TIA1 = 1000) [3]: 0
- total ion current (normalized to TIA1 = 1000) [4]: 0
- total ion current (normalized to TIA1 = 1000) [5]: 0
- total ion current (normalized to TIA1 = 1000) [6]: 0

Substance: NADH dehydrogenase [ubiquinone] iron-sulfur protein 2, mitochondrial (from UniProt Q91WD5 34-463)
- total ion current (normalized to TIA1 = 1000) [1]: 0
- total ion current (normalized to TIA1 = 1000) [2]: 137
- total ion current (normalized to TIA1 = 1000) [3]: 0
- total ion current (normalized to TIA1 = 1000) [4]: 0
- total ion current (normalized to TIA1 = 1000) [5]: 27
- total ion current (normalized to TIA1 = 1000) [6]: 0

Substance: NADH dehydrogenase [ubiquinone] iron-sulfur protein 3, mitochondrial (from UniProt Q9DCT2 36-263)
- total ion current (normalized to TIA1 = 1000) [1]: 0
- total ion current (normalized to TIA1 = 1000) [2]: 366
- total ion current (normalized to TIA1 = 1000) [3]: 60.8
- total ion current (normalized to TIA1 = 1000) [4]: 0
- total ion current (normalized to TIA1 = 1000) [5]: 36.9
- total ion current (normalized to TIA1 = 1000) [6]: 0

Substance: Nascent polypeptide-associated complex subunit alpha, muscle-specific form (from UniProt P70670 1-2187)
- total ion current (normalized to TIA1 = 1000) [1]: 0
- total ion current (normalized to TIA1 = 1000) [2]: 98.9
- total ion current (normalized to TIA1 = 1000) [3]: 0
- total ion current (normalized to TIA1 = 1000) [4]: 10.5
- total ion current (normalized to TIA1 = 1000) [5]: 0
- total ion current (normalized to TIA1 = 1000) [6]: 474

Substance: Nicotinamide phosphoribosyltransferase (from UniProt Q99KQ4 1-491)
- total ion current (normalized to TIA1 = 1000) [1]: 0
- total ion current (normalized to TIA1 = 1000) [2]: 0
- total ion current (normalized to TIA1 = 1000) [3]: 0
- total ion current (normalized to TIA1 = 1000) [4]: 0
- total ion current (normalized to TIA1 = 1000) [5]: 0
- total ion current (normalized to TIA1 = 1000) [6]: 1570

Substance: PH and SEC7 domain-containing protein 3 (from UniProt Q2PFD7 1-1037)
- total ion current (normalized to TIA1 = 1000) [1]: 0
- total ion current (normalized to TIA1 = 1000) [2]: 555
- total ion current (normalized to TIA1 = 1000) [3]: 0
- total ion current (normalized to TIA1 = 1000) [4]: 0
- total ion current (normalized to TIA1 = 1000) [5]: 133
- total ion current (normalized to TIA1 = 1000) [6]: 0

Substance: Phosphatidylinositol 5-phosphate 4-kinase type-2 gamma (from UniProt Q91XU3 2-421)
- total ion current (normalized to TIA1 = 1000) [1]: 0
- total ion current (normalized to TIA1 = 1000) [2]: 36.6
- total ion current (normalized to TIA1 = 1000) [3]: 0
- total ion current (normalized to TIA1 = 1000) [4]: 0
- total ion current (normalized to TIA1 = 1000) [5]: 0
- total ion current (normalized to TIA1 = 1000) [6]: 0

Substance: Phytanoyl-CoA hydroxylase-interacting protein (from UniProt Q8K0S0 1-330)
- total ion current (normalized to TIA1 = 1000) [1]: 0
- total ion current (normalized to TIA1 = 1000) [2]: 17.1
- total ion current (normalized to TIA1 = 1000) [3]: 0
- total ion current (normalized to TIA1 = 1000) [4]: 0
- total ion current (normalized to TIA1 = 1000) [5]: 54.7
- total ion current (normalized to TIA1 = 1000) [6]: 0

Substance: Poly(rC)-binding protein 1 (from UniProt P60335 1-356)
- total ion current (normalized to TIA1 = 1000) [1]: 0
- total ion current (normalized to TIA1 = 1000) [2]: 19.2
- total ion current (normalized to TIA1 = 1000) [3]: 30.2
- total ion current (normalized to TIA1 = 1000) [4]: 0
- total ion current (normalized to TIA1 = 1000) [5]: 58.5
- total ion current (normalized to TIA1 = 1000) [6]: 0

Substance: Polyadenylate-binding protein 1 (from UniProt P29341 1-636)
- total ion current (normalized to TIA1 = 1000) [1]: 0
- total ion current (normalized to TIA1 = 1000) [2]: 50.7
- total ion current (normalized to TIA1 = 1000) [3]: 0
- total ion current (normalized to TIA1 = 1000) [4]: 0
- total ion current (normalized to TIA1 = 1000) [5]: 86.4
- total ion current (normalized to TIA1 = 1000) [6]: 0

Substance: Probable ATP-dependent RNA helicase DDX17 (from UniProt Q501J6 1-650)
- total ion current (normalized to TIA1 = 1000) [1]: 0
- total ion current (normalized to TIA1 = 1000) [2]: 135
- total ion current (normalized to TIA1 = 1000) [3]: 0
- total ion current (normalized to TIA1 = 1000) [4]: 0
- total ion current (normalized to TIA1 = 1000) [5]: 34.1
- total ion current (normalized to TIA1 = 1000) [6]: 0

Substance: Prohibitin (from UniProt P67778 2-272)
- total ion current (normalized to TIA1 = 1000) [1]: 0
- total ion current (normalized to TIA1 = 1000) [2]: 172
- total ion current (normalized to TIA1 = 1000) [3]: 37.7
- total ion current (normalized to TIA1 = 1000) [4]: 0
- total ion current (normalized to TIA1 = 1000) [5]: 137
- total ion current (normalized to TIA1 = 1000) [6]: 0

Substance: Prohibitin-2 (from UniProt O35129 2-299)
- total ion current (normalized to TIA1 = 1000) [1]: 0
- total ion current (normalized to TIA1 = 1000) [2]: 440
- total ion current (normalized to TIA1 = 1000) [3]: 171
- total ion current (normalized to TIA1 = 1000) [4]: 0
- total ion current (normalized to TIA1 = 1000) [5]: 292
- total ion current (normalized to TIA1 = 1000) [6]: 0

Substance: Proteasome subunit alpha type-4 (from UniProt Q9R1P0 1-261)
- total ion current (normalized to TIA1 = 1000) [1]: 10.5
- total ion current (normalized to TIA1 = 1000) [2]: 0
- total ion current (normalized to TIA1 = 1000) [3]: 0
- total ion current (normalized to TIA1 = 1000) [4]: 0
- total ion current (normalized to TIA1 = 1000) [5]: 0
- total ion current (normalized to TIA1 = 1000) [6]: 0

Substance: Protein Golgb1
- total ion current (normalized to TIA1 = 1000) [1]: 0
- total ion current (normalized to TIA1 = 1000) [2]: 0
- total ion current (normalized to TIA1 = 1000) [3]: 259
- total ion current (normalized to TIA1 = 1000) [4]: 0
- total ion current (normalized to TIA1 = 1000) [5]: 0
- total ion current (normalized to TIA1 = 1000) [6]: 0

Substance: Protein NipSnap homolog 1 (from UniProt O55125 36-284)
- total ion current (normalized to TIA1 = 1000) [1]: 0
- total ion current (normalized to TIA1 = 1000) [2]: 219
- total ion current (normalized to TIA1 = 1000) [3]: 0
- total ion current (normalized to TIA1 = 1000) [4]: 0
- total ion current (normalized to TIA1 = 1000) [5]: 27
- total ion current (normalized to TIA1 = 1000) [6]: 0

Substance: Protein NipSnap homolog 2 (from UniProt O55126 28-281)
- total ion current (normalized to TIA1 = 1000) [1]: 0
- total ion current (normalized to TIA1 = 1000) [2]: 81
- total ion current (normalized to TIA1 = 1000) [3]: 0
- total ion current (normalized to TIA1 = 1000) [4]: 0
- total ion current (normalized to TIA1 = 1000) [5]: 0
- total ion current (normalized to TIA1 = 1000) [6]: 0

Substance: Protein disulfide-isomerase A3 (from UniProt P27773 25-505)
- total ion current (normalized to TIA1 = 1000) [1]: 0
- total ion current (normalized to TIA1 = 1000) [2]: 69.2
- total ion current (normalized to TIA1 = 1000) [3]: 13.8
- total ion current (normalized to TIA1 = 1000) [4]: 0
- total ion current (normalized to TIA1 = 1000) [5]: 36
- total ion current (normalized to TIA1 = 1000) [6]: 0

Substance: Protein kinase C and casein kinase substrate in neurons protein 1 (from UniProt Q61644 1-441)
- total ion current (normalized to TIA1 = 1000) [1]: 0
- total ion current (normalized to TIA1 = 1000) [2]: 70.2
- total ion current (normalized to TIA1 = 1000) [3]: 18.4
- total ion current (normalized to TIA1 = 1000) [4]: 0
- total ion current (normalized to TIA1 = 1000) [5]: 31.2
- total ion current (normalized to TIA1 = 1000) [6]: 0

Substance: Protein kinase C epsilon type (from UniProt P16054 1-737)
- total ion current (normalized to TIA1 = 1000) [1]: 0
- total ion current (normalized to TIA1 = 1000) [2]: 78.7
- total ion current (normalized to TIA1 = 1000) [3]: 0
- total ion current (normalized to TIA1 = 1000) [4]: 0
- total ion current (normalized to TIA1 = 1000) [5]: 0
- total ion current (normalized to TIA1 = 1000) [6]: 0
